According to the DeepSol protein solubility set:

Test: soluble on expression in E. coli; label from the status in PepcDB or PDB records

Row | Sequence | soluble on expression in E. coli
1 | MPGKLLWGDIMELEAPLEESESQKKERQKSDRRKSRHHYDSDEKSETRENGVTDDLDAPKAKKSKMKEKLNGDTEEGFNRLSDEFSKSHKSRRKDLPNGDIDEYEKKSKRVSSLDTSTHKSSDNKLEETLTREQKEGAFSNFPISEETIKLLKGRGVTYLFPIQVKTFGPVYEGKDLIAQARTGTGKTFSFAIPLIERLQRNQETIKKSRSPKVLVLAPTRELANQVAKDFKDITRKLSVACFYGGTSYQSQINHIRNGIDILVGTPGRIKDHLQSGRLDLSKLRHVVLDEVDQMLDLGFAEQVEDIIHESYKTDSEDNPQTLLFSATCPQWVYKVAKKYMKSRYEQVDLVGKMTQKAATTVEHLAIQCHWSQRPAVIGDVLQVYSGSEGRAIIFCETKKNVTEMAMNPHIKQNAQCLHGDIAQSQREITLKGFREGSFKVLVATNVAARGLDIPEVDLVIQSSPPQDVESYIHRSGRTGRAGRTGICICFYQPRERGQLRYVEQKAGITFKRVGVPSTMDLVKSKSMDAIRSLASVSYAAVDFFRPSAQRLIEEKGAVDALAAALAHISGASSFEPRSLITSDKGFVTMTLESLEEIQDVSCAWKELNRKLSSNAVSQITRMCLLKGNMGVCFDVPTTESERLQAEWHDSDWILSVPAKLPEIEEYYDGNTSSNSRQRSGWSSGRSGRSGRSGGRSGGRSGRQSRQGSRSGSRQDGRRRSGNRNRSRSGGHKRSFD | soluble
2 | MGSDKIHHHHHHMPFQQGLLATPVPAHARHLFFTLQSPEALPAALDALLPQVDGKQLLLGVGAPLAKALGREIPGLRPFPLLDAAVENPSTQHALWLWLRGDERGDLLLRTQALEQALAPALSLADSVDGFLHRGGHDLTGYEDGTENPTDEEAVQAAIAADGSSFAAFQLWKHDLQYFKSLPQADQDNIIGRRLSDNEELDDAPASAHVKRTAQESFEPEAFMVRRSVSWADQRGAGLAFVALGKSFEAFEVQLRRMSGLEDGIIDGLYRFSRPLTGGYYWCPPMSETGVDLSPLLRA | not soluble
3 | LGSMESTQQMAVSIINSSFEAAVVAATSALENMGIEYDYQDIYSRVKNKFDFVMDDSGVKNNPIGKAITIDQALNNKFGSAIRNRNWLADTSRPAKLDEDVNKLRMMLSSKGIDQKMRVLNACFSVKRIPGKSSSIIKCTKLMRDKLERGEVEVDDSFVDEKME | soluble
4 | MKRRCVFMRLSLLDYVPLFEGRTPNDALKHSIKLAQHAEKLGYLRYWVAEHHQVYSVVSSAPEIIMMSILEHTQHIRVGSGGVMLPHYSPYKVAEQFKIMEARHPQRIDMAIGRSPSFKNVNAALNENKNEKLPFNTQITDLLKYFNNDTTQDHRFKSLLATPMVTSFPQLYILGMSNRSAKLAAQRGLPFVIARMGQSETDLHEAISTYRKYFKAYHGEINNAKPYVILATFVVTASNLSRVKQLLHTLQLWLMRINYLNQPKSYPSIETAQNKHYSQRELEKLEKMKSKIIYGMPNDVAEQLTLLHQQFKVDEIIILPHVFGEDARMELIELIANELIPSCSRDEF | not soluble
5 | MSKNLLIELGLEELPAYVVTPSEKQLGERLATFLTENRLSFEDIQTFSTPRRLAVRVSGLADQQTDLTEDFKGPAKKIALDADGNFSKAAQGFVRGKGLTTDAIEFREVKGEEYVYVTKHEAGKPAKEVLLGVTEVLSAMTFPVSMHWANNSFEYIRPVHTLTVLLNDEALELDFLDIHSGRVSRGHRFLGTETTITSADSYEADLRSQFVIADAKERQEMIVEQIKTLEVEQGVQVDIDEDLLNEVLNLVEFPTAFMGSFEAKYLDVPEEVLVTSMKNHQRYFVVRDQAGHLMPNFVSVRNGNDQAIENVIKGNEKVLVARLEDGEFFWREDQKLQIADLVAKLTNVTFHEKIGSLAEHMDRTRVIAASLAKEANLSAEEVTAVDRAAQIYKFDLLTGMVGEFDELQGIMGEKYALLAGEDAAVATAIREHYLPDAAGGALPETKVGAVLALAAKLDTLLSFFSVGLIPSGSNDPYALRRATQGIVRILDHFGWRIPMDKLVDSLYDLSFDSLTYANKADVMNFIRARVDKMMGKAAPKDIREAILASSTFV | not soluble
6 | MGSDKIHHHHHHMDFAAIDKQISALEACIDSTVEVTPGEQLSVGVDLGTAYIVVVVLNAAGSPVACAMEFAQVIKDGLVVDYVGATRIVRRLVQQLEERLGRQLTHAAIAVPPGTGHKDSNTHRHVVEGAGLEVTAILDEPTAANAVLGVQNGVIVDIGGGTTGLSVIEDGKVTYVADEPTGGTHVSLVLAGSYRISFTEAEELKKDQDRQREILPVVRPVIQKMASIVNRHIEGRDISAIYLVGGTCCLKDFETVFEKETGRPVYKPANPFLVTPLGIALNCNA | not soluble
7 | DYQIQISISDISEDRTEHQFTSNPEVKTPVGFEQHVESIPEMEDFGLSAAELMDESVPSDFQLDIGLVDDFLEIPSHETEVPQPKVASMQPDTNAKSQKPTVHRGELEAFIYGMGIDPNMVPSQNREQWFEQLGQSFSLMLIGLMETLHNRAVFKQTNRVNHTAFRKSENNPLKFSANLEDAIHNLYNRQTSSFLKPNAAIKEAFNDIENHEQALMQGVAGTVSSVMSLVEPNTIYSDALAKDNVINKVIPARKYAQSWKRFEGIHSQLTDELVNKESPFYLEDFAKHYELALKNKG | not soluble
8 | SIAYIEPYFLENDAEAASAATAAGKSTDGVSESLNIQGEILCGGAAADIAGRDFGGMNCVKPLAVVRPVGPEDIAGAVKAALRSDKLTVAARGNGHSINGQAMAEGGLVVDMSTTAENHFEVGYLSGGDATAFVDVSGGALWEDVLKRCVSEYGLAPRSWTDYLGLTVGGTLSNAGVSGQAFRYGPQTSNVTELDVVTGNGDVVTCSEIENSELFFSVLGGLGQFGIITRARVLLQPAPDMVRWIRVVYTEFDEFTQDAEWLVSQKNESSFDYVEGFVFVNGADPVNGWPTVPLHPDHEFDPTRLPQSCGSVLYCLELGLHYRDSDSNSTIDKRVERLIGRLRFNEGLRFEVDLPYVDFLLRVKRSEEIAKENGTWETPHPWLNLFVSKRDIGDFNRTVFKELVKNGVNGPMLVYPLLRSRWDDRTSVVIPEEGEIFYIVALLRFVPPCAKVSSVEKMVAQNQEIVHWCVKNGIDYKLYLPHYKSQEEWIRHFGNRWSRFVDRKAMFDPMAILSPGQKIFNRSL | soluble
9 | MVVSIITPLYKVEDFIARCADSLFRQSYTEIEYIFVDDCSSDRSVEVLLQVAERYPQLQQQIRILHHESNRGVAAARETGLAAATGEYVYWVDADDWIEPDAIEKMVVRSEQGQKDIIACGWYLCFRQNERRMPMPCYADAETALRGMLSGTMRWNLWLYMIKRDLYLMNDIHFMEGENVGEDMLVLIKLFSHAKSIGFVKDAFYHYVKQNENSLTRLSPEQQMKRQMRNLQAATDYLVTHFIGKYEKEINFFKLNAKMPLLISNDKNSYRTWTACFPEANKYIMANKRQTLRMRLVQLMAAKRQFWLVELYYQLVFKFVYGILYK | not soluble
10 | MHDTMHKIFGATPPIFSYTPILTMNLCIAKATPNVCHSTGNLCKAEMDNVTSWVYDKTQGLFITGE | not soluble
11 | MAHHHHHHMIERTDVVTGTETQEGSTVPQEARQFLQIIATMQSESEERARIIGELRYRKLLVEEERDKNFMEREAVVAKLADARAQLLQLDVEHRELQKRQRSSESEILENSRQSQRCRTLLSTCRGDLTVHPMVPNSASELAAEATAAGTSSAAHNAYTEEAKWLKHLFITYGQLYNGTDFLQELRVSMKNLYVEVSKETHNTVQRNLSDWEATCLQSLPHLTADERTLLHFQLMLHPFV | not soluble
12 | RVKGTFNKYSQLRSMSGMNGAQVAQRVLQAAGIYDVQVRHVSGSLTDHYDPRTKTVNLSDPVYNATSVAALGVAAHECGHAIQHAKSYAPLSIRS | not soluble
13 | MIGCLCIHGFTGSPEEVAPLADYLRERTDWMIETPTLPGHGSELRLKGITYDQWIAAAEQAFLALHHRCSVVYVIGFSMGGVIAVYLAEKYPVAKLVLLSAAFYYVNPRQLWRDIREMFANGWKGAREHPLFLRYRNKMMATPFSAVREFRKLVRDVRPRLPRVAAPALIVQGEKDGIVPLKSAYYLYEQIGSAEKKLLLLPNSFHHVCHSIDRHVLFAEVETFLRAAHAHHCKSPHNMV | not soluble
14 | DKSYRSTKEIMEYANRFLNDTSIIPMVRSGEKVQSLSISSEDEFVDRVTYAIDDMKKEGIETIGVICENMHDTKYFGELLKSKKYINIIEKENQIYTGGETVMPSYFAKGLEFDGVILVSRENKENKDRVLYVMATRALHKLYDFHIEF | not soluble
